This series deals with T1, dCas13a (LbuCas13a R1079A/K1080A) (Leptotrichia buccalis, UniProt C7NBY4 1-1159, R1079A;K1080A).
T1 sequence: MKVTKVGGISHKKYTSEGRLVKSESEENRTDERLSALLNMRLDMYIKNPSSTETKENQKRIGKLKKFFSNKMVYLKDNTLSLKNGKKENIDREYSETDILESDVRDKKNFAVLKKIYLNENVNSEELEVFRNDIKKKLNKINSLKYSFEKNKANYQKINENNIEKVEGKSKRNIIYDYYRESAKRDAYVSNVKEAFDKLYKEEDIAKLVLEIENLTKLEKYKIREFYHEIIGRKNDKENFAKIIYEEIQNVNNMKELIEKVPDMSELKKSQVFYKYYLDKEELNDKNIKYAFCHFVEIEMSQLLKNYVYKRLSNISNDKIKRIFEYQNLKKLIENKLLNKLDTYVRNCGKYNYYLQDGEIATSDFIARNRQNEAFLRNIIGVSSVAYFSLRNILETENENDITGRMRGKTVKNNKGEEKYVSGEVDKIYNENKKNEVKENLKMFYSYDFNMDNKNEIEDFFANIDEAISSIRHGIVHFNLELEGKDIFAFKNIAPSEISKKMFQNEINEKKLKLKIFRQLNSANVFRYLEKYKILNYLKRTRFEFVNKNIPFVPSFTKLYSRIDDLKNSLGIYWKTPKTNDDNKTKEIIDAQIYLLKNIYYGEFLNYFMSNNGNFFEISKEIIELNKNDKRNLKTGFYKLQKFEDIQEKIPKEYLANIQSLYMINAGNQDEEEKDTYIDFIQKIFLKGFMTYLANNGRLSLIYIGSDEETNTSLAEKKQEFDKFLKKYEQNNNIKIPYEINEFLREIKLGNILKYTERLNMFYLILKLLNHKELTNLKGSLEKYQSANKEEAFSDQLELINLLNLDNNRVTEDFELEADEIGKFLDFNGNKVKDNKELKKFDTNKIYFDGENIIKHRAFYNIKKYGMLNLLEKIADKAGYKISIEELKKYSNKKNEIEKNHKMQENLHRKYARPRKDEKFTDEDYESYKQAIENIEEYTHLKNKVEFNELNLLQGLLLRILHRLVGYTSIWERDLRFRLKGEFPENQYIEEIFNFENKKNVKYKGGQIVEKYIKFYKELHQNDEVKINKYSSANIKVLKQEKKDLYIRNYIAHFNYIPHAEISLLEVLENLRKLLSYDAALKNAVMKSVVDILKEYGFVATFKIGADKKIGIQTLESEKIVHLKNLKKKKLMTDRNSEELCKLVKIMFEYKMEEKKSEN
In words: EMSA; no target RNA; dCas13a EMSA: 20 mM HEPES pH 6.8 (25 C), 50 mM KCl, 10 ug/mL BSA, 100 ug/mL yeast tRNA, 0.01% Igepal CA-630, 5% glycerol; 10 min at 37 C; 6% native PAGE at 4 C. As to conditions: protein: recombinant; tags: His6-MBP removed with TEV protease; label: 5'-Cy3; single strand, repeat hairpin.

B1: crRNA13a-Cy3 (unmasked) (structured_RNA)
RNA: GAUUUAGACUACCCCAAAAACGAAGGGGACUAAAACUAGAUUGCUGUUCUACCAAGUAAUCCAU
Turning to B1, the binding result is listed as “binds”.

Values taken from paper PMC6941951, “Conditional control of RNA-guided nucleic acid cleavage and gene editing”.
